Source: paper PMC6389498, “Control of Bacterial Virulence through the Peptide Signature of the Habitat” (Cell Reports, 2019)

Assays:
[1] = target: PrfA (recombinant PrfA^WT from E. coli BL21(pET28aprfA^WT), used in the biophysical assays) (Listeria monocytogenes) (UniProt P22262)
[2] = target: PrfA (recombinant PrfA^WT from E. coli BL21(pET28aprfA^WT), used in the biophysical assays) (Listeria monocytogenes) (UniProt P22262); experiment: ITC; GE MicroCal iTC200; 100 uM PrfA in the cell, 2 uL of 250 uM peptide injected every 60 s; 50 mM Tris pH 7.5, 500 mM NaCl; one-site model
[3] = target: PrfA (full-length PrfA^WT with two non-native N-terminal residues GA after TEV cleavage, used for crystallization) (Listeria monocytogenes) (UniProt P22262); experiment: crystal structure

Sequence of PrfA (recombinant PrfA^WT from E. coli BL21(pET28aprfA^WT), used in the biophysical assays) (Listeria monocytogenes) (P22262 whole entry): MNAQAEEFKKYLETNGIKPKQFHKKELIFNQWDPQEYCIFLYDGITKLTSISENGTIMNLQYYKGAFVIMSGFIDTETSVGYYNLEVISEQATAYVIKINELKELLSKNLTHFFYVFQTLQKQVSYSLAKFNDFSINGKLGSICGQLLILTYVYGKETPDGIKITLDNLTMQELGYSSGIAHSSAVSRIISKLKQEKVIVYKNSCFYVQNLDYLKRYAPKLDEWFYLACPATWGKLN
Sequence of PrfA (full-length PrfA^WT with two non-native N-terminal residues GA after TEV cleavage, used for crystallization) (P22262 1-237, tags left off): as the sequence (P22262 whole entry) above

other [1] [%]	Kd [2] [µM]	Substance	stoichiometry N [3]
93	25	LL peptide (Leu dipeptide, L-leucylleucine)	–
87	25	LLL peptide (Leu tripeptide)	–
–	–	PrfA (full-length PrfA^WT with two non-native N-terminal residues GA after TEV cleavage, used for crystallization) (from UniProt P22262 1-237) (natural protein)	2
